Test results: the nanobody polyreactivity screen of Harvey et al. (2022)

Experiment: yeast display, Sf9 membrane polyspecificity reagent, FACS + sequencing; frameworks hold sequencing errors
In short: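 In a synthetic yeast display library (Saccharomyces cerevisiae BJ5465), nanobody expression was induced with galactose for 36–48 hours. FACS gates were set low and high (top ~1%) using anti-HA fluorescence for expression and streptavidin fluorescence for binding of the Sf9 membrane reagent. Each polyreactivity label is drawn from the gate of origin.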

Sequence	polyreactivity (PSR sort gate)
QVQLVESGGGLVQAGGSLRLSCAASGKTFDPNAMGWYIPAPGKEREFVAAIATIGSSTYYADSVKGRFTMSRDNAKNTVYLPMTCLKPEDSAVYYCAKGIYVVYGIDDYWGQGTQVTVSS	low polyreactivity
QVQLVESGGGLVQAGGRLRLSCAASGLIFYVYAMGWYRQEPGKERELVASITWSGGRTYYADSVKGRFTISRDNEKNTVYLQMNSLKPEDTAVYYCATDLIQGAAPFRYDYWGQGTQVTVSS	low polyreactivity
QVQLVESGGGLVQAGGSLRLSCAASGRTFNRNAMGWYRPAPGKERELVAAISRGGGGTFYADSVKGRFTISRDNAKNTVYLQMNSLKPEDTAVYYCAVWQDHYDWGQGTQVTVSS	low polyreactivity
QVQLVESGGGLVQAGGSLRLSCAASGIIFAWNVRGWYRQAPGKERELVAAITQSGGGTYYADSVKGRFTISRDNAKNTVYLLMYSLKPEDTGFYYCAAVGYQFYRYVWVDEFDSWGQGTQVTVSS	low polyreactivity
QVQLVESGGGLVQAGGSLRLSCAASGRTFNRYAMGWYRQAPGKERELVAAISWRGDSTYYADSVKGRFTISRDNAKNTVYLQMNSLKPEDTAVYYCAARGNFWGQGTQVTVSS	high polyreactivity
QIQLVESGGGLVQAGGSLRLSCAASGSTLPDYAMGWYRQAPGKERELVADITARGGTYYADSVKGRFTISRDNAKNTVYLQMNSLKPEDTAVYYCAARISGRWYEYWGQGTQVTVSS	high polyreactivity
QVQLVESGGGLVQAGGSLRLSCAASGGMGWYRQAPGKERELVATISSVGSTNYADSVKGRFTISRDNAKNTVYLQMNSLKPEDTAVYYCNDTGVQYFLYAYWGQGTQVTVSS	low polyreactivity
QVQLVESGGGLVQARGSLRLSCAASGIIFAFYAMGWYRQPPGKERELVAGITSGGDTYYADSVKGRFTISRDNAKKTVYLQMNRLKPEDTAVYYCAAVVQYPYRAGWRYWYATNFDYWGQGTQVTVSS	high polyreactivity
QVQLVDSRGGLVQAGGSLRLSCAASGFTFWYYAMGWYRQAPGKERELVAAITNGGGSKYYADSVKGRFTISRDNAKNTFYLQMNSLKPEDTAVFYCAKDGHSYYPWEYDYWGQGTQVTVSS	low polyreactivity
QVQLVESGGGLVQAGGSLRLSCAASGSTFYNYAMGWYRQAPGKERELVAAITSSGGSTYYADSVKGRFTISRDNAKNTVYLQMNSLKPEDTAVYYCAATRRVRRKSFTYRYDYWGQGTQVTVSS	high polyreactivity
QVQLVESGGGLVQAGGSLRLSCAASGFTFDYYDMGWYRQAPGKERELVAGITYSGGRTRYADSVKGRFTISRDNAKNTVYLQMNSLKPEDTAVYYCAARPGYPYRMNYWGQGTQVTVSS	low polyreactivity
QVQHVESGGGLVQAGGSLRLICAASGRIFTRYAMGWYRQAPGKERELVAAISASGGSTHYADSVKGRFTISRDNAKNTVYLQMNSLKPEDTAVYYCADAYVSRNSGFGYWGQGTQVTVSS	low polyreactivity
QVQLVESGGGLVQAGGSLRLSCAASGSIFWAYAMGWYRQAPGKERELVAAISRGGTTTYADSVKGRFTISRDNAKNTVYLQMNSLKPEDTAVYYCARRAVYSKRRYDYWGQGTQVTVSS	low polyreactivity
QVQLVESGGGLVQAGGSLRLSCAASGNTFNVYAMGWYRQAPGKERELVAAITLSGGSTYYADSVKGRFTISRDNEKNTVYLQMNSLKPEDTAVYYCNAEEDGTDYDYWGQGTQVTVSS	low polyreactivity
QVQLVESGGGLVQAGGSLRLSCAASGFIFWVYAMGWYRQAPGKESELVAAITSGGRTYYADSEKGRFTISRDNAKNTVYLQMNSLKPEDTAVYYCAARWHYGYYSYYYWGQGTQVTVSS	high polyreactivity
QLQLVESGGGLVQAGGSLRLSCAASGYIFGWYAMGWYRQAPGKERELVATIDWSGDSTYYADSVKGRFTISRDNAKNTVYLQLNSLKPEATAVYYCAVGYSYYPSDEFDYWGQGTQVTVSS	low polyreactivity

Sequence	polyreactivity (PSR sort gate)
QVQLVESGGGLVQAGGSLRLSCAASGRIFVTNAMGWYRQAPGKERELVASISSGGRTHYADSVKGRFTISRDNAKNTVYLQMNSLKPEDTAVYYCAKPPLYYYPALRGEEFYYWGQGTQVTVSS	low polyreactivity
QVQLVESVGGLVQAGGSLRLSCAASGYIFATNAMGWYRQAPGKERELVAAITRSGGRTYYADSVKGRFTISRDNAKNTVYLQMNSLKPEDTAVYYCAAARPTNIYYYWGQGTQVTVSS	high polyreactivity
QVQLVESGGGLVQAGGSLRLSCAASGFTIWRNDMGWYRQAPGKERELVAVISTAGRTYYADSVKGRFTISRDNAKITVYLQMNSLKPEDTAVYYCAKRSYSKDQPRYGYWGQGTQVTVSS	low polyreactivity
QVQLVESGGGLVQAGGSLRLSCAASGSIFYTYAMGWYRQAPGKERELVAAITYRVGSTYYADSVKGRFTISRDNAKNTVYLQMNSLKPEDTAVYYCNADKGGHVRHYDYWGQGTQVTVSS	low polyreactivity
QVQLVVSGGGLVQAGGSLRLSCAASGRIIFWYALGWYRQAPGKERELVAGITSGGSTNYADSVKGRFTISRDNAKNTVYLQMMRLKPEVTAVYYCNTVDSIPIGSGLYYYWGQGTQVTVSS	low polyreactivity
QVQLVESGGGLFQEGGSLRVSCAASGRIFIANAMGWYRQAPGKERELVAAISFSGGSTYYADSVKGRFTISRDNAKSTVYLQLNSLKPEDTAVYFCIKVGIRYYYGYDYWGHGTQVTVSS	high polyreactivity
QVQLVESGGGLVQAGGSLRLSCAASGRTFRIYAMGWYRQAPGKERELVAAISARGGSTYYADSVKGRFTISRDNAKNTVYLQMNSLKPEDTAVYYCAAEKTRRVDYWGQGTQVTVSS	high polyreactivity
QVQLVESGGGLVQAGGSLRLSCAASGNIFRSYAMGWYRQAPGKERELVAAISSSDDSTYYADSVKGRFTISRDNAKNTVYLQMNSLKPEDTAVYYCAADGWSWYKGYVGDDMDYWGQGTQVTVSS	low polyreactivity
QVQLVESGGGLVQAGGSLRLSCAASGFISTYYAMGWYRQAPGKERELVAAISWNGGSTYYADSVKGRFTISRDNAKNTVYLQMNSLKPEDTAVYYCAAYLGKWRHFYSSDYDYWGQGTQVTVSS	low polyreactivity
QVQLVESGGGLVQAGGSLRLSCAASGRIIKLYAMGWYRQAPGKEREFVAAITWSGGRTYYADSVKGRFTISRDNAKNTVYLQMNSLKPEDTAVYYCAAYDTYDWYDYWGQGTQVTVSS	high polyreactivity
QVQLVESGGGLVQAGGSLRLSCAASGITFRYYAMGWYRQAPGKERELVARITTDGSTHYADSVKGRFTISRDNAKNTVYLQMNSLKPEDTAVYYCNARHRNLAEYDYWGQGTQVTVSS	low polyreactivity
QVQLVESGGGLVQAGGSLRLSCAASRSIFVPYAMGWYRQAPGKERELVAVITSGGSTYYADSVKGRFTISRDNAKNTVYLQMNSLKPEDTAVYYCNADLYYVWSTLSQFDYWGQGTQVTVSS	low polyreactivity
QVQLVESGGGLVQAGGSLRLSCAASGIIFAYAMGWYRQAPGKERELVAAISGRDGSTYYADSVKGRFTISRDNAKNTVYLQMNSLKPEDTAVYYCNAVRGSYSWQMYYWGQGTQVTVSS	low polyreactivity
QVQLVESGGGLVQAGGSLRLSCAASGNIFETNAMGWYRQAPGKERELVAAITRSGGSTYYADSVKGRFTISRDNAKNTVYLQMNSLKPEDTAVYYCAYYPYGYDYWGQGTQVTVSS	high polyreactivity
QVQLVESGGGLVQAGGSLRLTCAASGIIFDKNAMGWYRQAPGKERELVAVITRGGSTYYADSVKGRFTISRDNAKNTVYLQMNSLKPEDTAVYYCAARYTPGFGYWGQGTQVTVSS	high polyreactivity
QVQLVESGGGLVQAGGSLRLSCAASGITFSDYAMGWYRQAPGKERELVAGITSGGSTYYADSVKGRFTISRDNAKNTVYLQMNSLKPEDTAVYYCAAVRRWKYDWGQGTQVTVSS	high polyreactivity
